Columns and labels:
Conditions in all cases: both partners purified
[1] = biological target: trimeric SARS-CoV-2 S ectodomain (insect cell-expressed) (SARS-CoV-2 Wuhan-Hu-1 (MN908947), UniProt P0DTC2, stabilised); test: SPR
SARS-CoV-2 S HexaPro = SARS-CoV-2 S HexaPro (SARS-CoV-2 Wuhan-Hu-1, HexaPro, stabilised); test: cryo-EM structure
[2] = biological target: trimeric SARS-CoV-2 S ectodomain (insect cell-expressed) (SARS-CoV-2 Wuhan-Hu-1 (MN908947), UniProt P0DTC2, stabilised); test: SPR; remark: listed apart in the source

B1: pT1679 Fab (Fab, V domains shown)
VH: QVQLVQSGAEVKKPGSSVKVSCRASGGTFSSYAISWVRQAPGQGLEWMGTIIPVFGAPDYAQKFQGRVTITADESTSTAYMEVRSLRSEDTAVYYCARDASPYYYDRSGYPRWAEDLHHWGQGTMVTVSS
VL: QSVLTQPPSVSGAPGQRVTISCTGSSSNIGAGYDVHWYQQLPGTAPKLLIYGNSNRPSGVPDRFSGSKSGTSGSLAISGLQPEDEADYYCQSYDSSLSGSIFGGGTKLTVL
notes: also called Fab fragment of pT1679; source: Drosophila S2 cells, purified (Strep-Tactin XT, SEC)
For B1, the “fold higher affinity than for the RBD” value [1] was roughly 3 fold.

B2: pT1679 Fab (Fab, V domains shown)
VH: QVQLVQSGAEVKKPGSSVKVSCRASGGTFSSYAISWVRQAPGQGLEWMGTIIPVFGAPDYAQKFQGRVTITADESTSTAYMEVRSLRSEDTAVYYCARDASPYYYDRSGYPRWAEDLHHWGQGTMVTVSS
VL: QSVLTQPPSVSGAPGQRVTISCTGSSSNIGAGYDVHWYQQLPGTAPKLLIYGNSNRPSGVPDRFSGSKSGTSGSLAISGLQPEDEADYYCQSYDSSLSGSIFGGGTKLTVL
notes: source: Drosophila S2 cells, purified (Strep-Tactin XT, SEC)
For B2, the “stoichiometry N” value (SARS-CoV-2 S HexaPro) was 3 pT1679 molecules per trimeric S protein, the Kd [2] was 0.13 nM and the koff [2] was 0.00012 s⁻¹. For the same binder, the kon [2] was 900000 M⁻¹ s⁻¹.

Reference: paper PMC12421856 (mBio, 2025)
